Experimental data published in patent US20250228895A1, “COMPOUNDS TO INHIBIT YTHDF2, T HELPER CELLS LACKING EXPRESSION OF YTHDF2, AND METHODS TO TREAT CANCER” (City of Hope, priority 2024, published 2025).

B1: CpG-Ythdf2 siRNA: Ythdf2 siRNA conjugated to TLR9 agonist CpG1668 ODN by carbon linker; SS SEQ ID NO:1-linker-SEQ ID NO:3, AS SEQ ID NO:2 (nucleic acid)
sense: TCCATGACGTTCCTGATGCT
chain: GCAAACUUGCAGUUUAUGUAU
antisense: AUACAUAAACUGCAAGUUUGCUU
modifications: carbon linker joining SEQ 1 and SEQ 3; modified_base 1..20 OTHER; phosphorothioate bond; modified_base 7 OTHER; Uracil; modified_base 8 OTHER; modified_base 13 OTHER; modified_base 14 OTHER; modified_base 15 OTHER; modified_base 17 OTHER; modified_base 19 OTHER; modified_base 21 OTHER; modified_base 1..3 OTHER; modified_base 2 OTHER; modified_base 6 OTHER; modified_base 11 OTHER; modified_base 18 OTHER; modified_base 22 OTHER; modified_base 23 OTHE

What was measured:
CX3CR1 = biological target: T1, CX3CR1 (Mus musculus, UniProt Q9Z0D9); experiment: Transwell BMDM migration assay with tumor supernatant and CX3CR1 blocking; assay type: cell-based; conditions: BMDMs pretreated overnight with 10 μM
T1 construct: BMDMs in the insert were pretreated overnight with 10 μM AZD8797; endogenous in cells; host or cells: primary bone-marrow-derived macrophages (BMDMs) from C57BL/6 mice
T1 sequence (Q9Z0D9 1-354): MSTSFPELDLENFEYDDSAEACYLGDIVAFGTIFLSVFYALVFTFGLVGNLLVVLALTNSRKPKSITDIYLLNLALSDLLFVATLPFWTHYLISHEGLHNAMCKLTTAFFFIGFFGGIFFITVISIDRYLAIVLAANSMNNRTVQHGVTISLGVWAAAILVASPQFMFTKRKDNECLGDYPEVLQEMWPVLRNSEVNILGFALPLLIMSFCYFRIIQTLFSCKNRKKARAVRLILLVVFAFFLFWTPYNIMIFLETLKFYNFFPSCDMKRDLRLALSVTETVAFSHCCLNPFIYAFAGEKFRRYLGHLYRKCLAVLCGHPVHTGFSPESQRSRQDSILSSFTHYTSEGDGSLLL

B16-OVA cells = experiment: WT vs Ythdf2-KO B16-OVA tumor growth in C57BL/6 mice with AZD8797 or liposomal clodronate; assay type: in vivo, mouse; conditions: 1 mg/kg i.p. once per day
From the text: FIGS. 24A-24L show loss of YTHDF2 in tumor cells promotes the recruitment of CX3CR1^+ macrophage via CX3CL1. (A) Volcano plot showing the differentially expressed genes (DEGs) between WT and Ythdf2-KO MC38 tumor. DEGs with an absolute log-transformed fold change of >0.25 and adjusted P value of <0.05 (determined by two-sided Wilcoxon rank-sum test and adjusted using the Bonferroni correction) were defined as significant. […] (C) Heatmap of differential expression genes in leukocyte migration pathway between WT and Ythdf2-KO MC38 tumor cells. […] (E) The absolute number of CX3CR1^+F4/80^+CD11b^+ TAMs from WT and Ythdf2-KO B16-OVA tumors after tumor inoculation (n=3 tumors per group). (F) Schematic representation of a transwell coculture assay involving BMDMs treated with WT or Ythdf2-KO tumor supernatant. (G) Migration cell number of BMDMs induced by WT or Ythdf2-KO B16-OVA tumor cells cultured supernatants, measured with a transwell assay (n=3 samples per group). (H) Migration cell number of BMDMs induced by WT or Ythdf2-KO B16-OVA tumor cell culture supernatant with or without AZD8797, measured with a transwell assay (n=3 samples per group). […] C57BL/6 mice received either an intraperitoneal injection of AZD8797 (1 mg/kg) or an equal amount of PBS once per day for 13 days. Tumor size was measured (n=5 tumors per group). […] Tumor size was measured (n=5 tumors per group). […]

B16-OVA = B16-OVA tumor model, intra-tumoral CpG-Ythdf2 siRNA; assay type: in vivo, mouse
From the text: FIGS. 7A-7G: TLR9-targeted YTHDF2 silencing in TAMs suppresses tumor growth and synergizes with anti-PD-L1 blockade. FIG. 7A: Scheme of therapeutic strategies that use CpG-Ythdf2 siRNA alone or in combination with anti-PD-L1. FIG. 7B: B16-OVA or MC38 tumor growth in mice treated with CpG-Ythdf2 siRNA, CpG-scrambled siRNA, CpG only, or PBS (n=5 per group). FIG. 7C: Percentages of tumor-infiltrating IFN-γ-producing CD8^+ T cells in B16-OVA (n=5 per group) or MC38 tumor models (n=5 for PBS group; n=3 for CpG only, CpG-Scrambled siRNA, and CpG-Ythdf2 groups) as described in FIG. 7B. For the MC38 model, tumors in the CpG only, CpG-Scrambled siRNA, and CpG-Ythdf2 groups were pooled for flow cytometry due to small tumor size (sample size after pooling n=3). FIG. 7D: B16-OVA tumor growth in mice treated with CpG-Ythdf2 siRNA, CpG-scrambled siRNA, or in combination with anti-PD-L1 (left, n=5-6 per group) and percentages of tumor-infiltrating IFN-γ-producing CD8^+ T cells (right, n=5 for CpG-scrambled siRNA plus IgG and CpG-scrambled siRNA plus anti-PD-L1 groups, n=3 for CpG-Ythdf2 siRNA plus IgG and CpG-Ythdf2 siRNA plus anti-PD-L1 groups). Tumors from the CpG-Ythdf2 siRNA plus IgG and CpG-Ythdf2 siRNA plus anti-PD-L1 groups were pooled for flow cytometry due to small tumor size (sample size after pooling n=3). FIG. 7E: IFN-γ and granzyme B production by Ly95 T cells when co-cultured with WT or YTHDF2 knock-down macrophages preloaded with NY-ESO157-c165 peptide (n=5). FIGS. 7F-7G: Colon cancer sections were immunohistochemically stained with YTHDF2 plus CD68 or CD8 alone. Dash lines outline the edge of tumor zones. Asterisk marks the stroma tissues. Representative YTHDF2^+CD68^+ high (Patient #11) and YTHDF2^+CD68^+ low (Patient #2) specimens are shown (FIG. 7F). Scale bars=100 μm. Black rows mark YTHDF2^+CD68^+ cells. Correlations between YTHDF2^+CD68^+ cells and CD8^+ T cells in the stroma area are shown (FIG. 7G: n=18 patients). Data are shown as mean SD and were analyzed with one-way ANOVA with the Holm-Šídík post-test (FIGS. 7C-7E) or two-way ANOVA with mixed-effects model (FIGS. 7B, 7D) and adjusted by the Holm-Šídík post-test or Spearman correlation (FIG. 7G). Data in FIGS. 7B-7E are representative of at least two independent experiments (*P<0.05, **P<0.01, ***P<0.001, ****P<0.0001).
Tumor models and treatments. B16-OVA (2×10^5) or MC38 cells (2×10^5) were implanted subcutaneously (s.c.) into the flank of mice. […] For the lung metastatic melanoma model, B16F10 cells (1×10^5) were injected intravenously (i.v.) into the mice. Fourteen days after injection, mice were euthanized for post-mortem analysis. Metastatic nodules in the lung were analyzed macroscopically and counted. […] To co-transfer with macrophages, B16-OVA (2×10^5) or MC38 cells (2×10^5) were mixed with an equal number of bone marrow-derived macrophages (BMDMs) from WT or Ythdf2-cKO mice and implanted s.c. into the flank of WT mice, or Rag1^−/− mice injected i.v. without or with CD3^+ T cells (5×10^6). To knock down Stat1 using siRNA, BMDMs were transfected with siGENOME mouse Stat1 siRNA (Catalog: M-058881-02-0005, Horizon) at 100 nM using lipofectamine 3000 (Invitrogen). 48 h later, cells were collected and mixed with an equal number of B16-OVA cells (2×10^5) and implanted s.c. into the flank of WT mice.
For the uptake studies, CpG-Ythdf2 siRNA (SS) was labeled using […] Cy3. In vivo delivery of CpG-Ythdf2 siRNA for treatment began when the largest diameter of the tumors reached 5-8 mm-typically 5-7 days after inoculation. Mice were injected intratumorally every other day with 5 mg/kg of CpG-Ythdf2 siRNA, CpG-scrambled siRNAs, CpG alone or PBS in a volume of 20 μL. Tumor growth was monitored every other day.

MC38 = MC38 tumor model, intra-tumoral CpG-Ythdf2 siRNA; assay type: in vivo, mouse
From the text: FIGS. 7A-7G: TLR9-targeted YTHDF2 silencing in TAMs suppresses tumor growth and synergizes with anti-PD-L1 blockade. FIG. 7A: Scheme of therapeutic strategies that use CpG-Ythdf2 siRNA alone or in combination with anti-PD-L1. FIG. 7B: B16-OVA or MC38 tumor growth in mice treated with CpG-Ythdf2 siRNA, CpG-scrambled siRNA, CpG only, or PBS (n=5 per group). FIG. 7C: Percentages of tumor-infiltrating IFN-γ-producing CD8^+ T cells in B16-OVA (n=5 per group) or MC38 tumor models (n=5 for PBS group; n=3 for CpG only, CpG-Scrambled siRNA, and CpG-Ythdf2 groups) as described in FIG. 7B. For the MC38 model, tumors in the CpG only, CpG-Scrambled siRNA, and CpG-Ythdf2 groups were pooled for flow cytometry due to small tumor size (sample size after pooling n=3). […] Data are shown as mean SD and were analyzed with one-way ANOVA with the Holm-Šídík post-test (FIGS. 7C-7E) or two-way ANOVA with mixed-effects model (FIGS. 7B, 7D) and adjusted by the Holm-Šídík post-test or Spearman correlation (FIG. 7G). […]
(§1) Tumor models and treatments. […] Metastatic nodules in the lung were analyzed macroscopically and counted. […]
For the uptake studies, CpG-Ythdf2 siRNA (SS) was labeled using fluorescein Cy3. […] Tumor growth was monitored every other day.

B16F10 = B16F10 lung metastasis model, intravenous CpG-Ythdf2 siRNA; assay type: in vivo, mouse
Experimental: FIGS. 15A-15P: TLR9 expression and CpG-Ythdf2 siRNA design as well as its uptake by macrophages associated with anti-tumor effect in vivo. FIG. 15A: Violin plot showing the Tlr9 expression across 15 cell clusters from scRNA-seq data in this study. FIG. 15B: Sequence of the CpG-linked mouse Ythdf2 siRNA conjugate (CpG-Ythdf2 siRNA). FIGS. 15C-15D: BMDMs were incubated with different doses of Cy3-labeled CpG-Ythdf2 siRNA (FIG. 15C) or with 100 nM Cy3-labeled CpG-Ythdf2 siRNA for the indicated times (FIG. 15D). CpG-Ythdf2 siRNA uptake was examined by flow cytometry. Data shown are representative histograms. FIG. 15E: Cy3-labeled CpG-Ythdf2 siRNA or CpG only was injected into B16-OVA tumors of C57BL/6 mice. […] Data shown are representative histograms. FIG. 15F: mRNA levels of Ythdf2 in macrophages sorted from tumor tissues of B16-OVA-bearing mice treated with CpG-Ythdf2 siRNA or CpG-scrambled siRNA (n=3 per group). […] Median fluorescence intensity (MFI) is shown. Data are shown as mean±SD and were analyzed with an unpaired two-tailed t-test (FIGS. 15F-15I) or one-way ANOVA with the Holm-Šídík post-test (FIGS. 15J-15K) or two-way ANOVA with the mixed-effects model and adjusted by Holm-Šídík post-test (FIG. 15L). […]
as §1

Ythdf2 mRNA = experiment: qPCR of Ythdf2 mRNA in sorted TAMs of treated B16-OVA-bearing mice; assay type: in vivo, mouse; conditions: vs CpG-scrambled siRNA group
Experimental: FIGS. 15A-15P: TLR9 expression and CpG-Ythdf2 siRNA design as well as its uptake by macrophages associated with anti-tumor effect in vivo. FIG. 15A: Violin plot showing the Tlr9 expression across 15 cell clusters from scRNA-seq data in this study. FIG. 15B: Sequence of the CpG-linked mouse Ythdf2 siRNA conjugate (CpG-Ythdf2 siRNA). FIGS. 15C-15D: BMDMs were incubated with different doses of Cy3-labeled CpG-Ythdf2 siRNA (FIG. 15C) or with 100 nM Cy3-labeled CpG-Ythdf2 siRNA for the indicated times (FIG. 15D). CpG-Ythdf2 siRNA uptake was examined by flow cytometry. Data shown are representative histograms. FIG. 15E: Cy3-labeled CpG-Ythdf2 siRNA or CpG only was injected into B16-OVA tumors of C57BL/6 mice. […] Median fluorescence intensity (MFI) is shown. Data are shown as mean±SD and were analyzed with an unpaired two-tailed t-test (FIGS. 15F-15I) or one-way ANOVA with the Holm-Šídík post-test (FIGS. 15J-15K) or two-way ANOVA with the mixed-effects model and adjusted by Holm-Šídík post-test (FIG. 15L). […]
Quantitative real-time RT-PCR (qPCR). RNA was isolated using an RNeasy Mini Kit (QIAGEN) and then reverse transcribed to cDNA with PrimeScript RT Reagent Kit with gDNA Eraser (Takara Bio) following the manufacturer's instructions. mRNA expression levels were analyzed using SYBR Green PCR Master Mix and a QuantStudio 12K Flex Real-Time PCR System (both from Thermo Fisher Scientific).

[1] = 5 mg/kg intratumorally every other day, vs CpG-scrambled siRNA
[2] = intra-tumoral, vs CpG-scrambled siRNA
[3] = vs CpG-Ythdf2 siRNA alone or anti-PD-L1 mAb alone

Molecule	macrophage migration induced by WT vs Ythdf2-KO tumor supernatant (CX3CR1)	difference of tumor growth between WT and Ythdf2-KO tumor (B16-OVA cells)	tumor growth (B16-OVA; [1])	tumor growth in Batf3 KO mice (B16-OVA; Batf3 KO mice lacking cDC1 cells, vs CpG-scrambled siRNA)	proportion of M1 TAMs (B16-OVA; [2])	proportion of M2 TAMs (B16-OVA; [2])	CD8+ cytotoxic T cell responses, combination with anti-PD-L1 antibody (B16-OVA; [3])	tumor growth, combination with anti-PD-L1 antibody (B16-OVA; [3])	percentage of IFN-γ-producing CD8+ T cells (B16-OVA; vs CpG-scrambled siRNA group)	tumor growth (MC38; [1])	percentage of IFN-γ-producing CD8+ T cells (MC38; vs CpG-scrambled siRNA group)	tumor metastasis (lung metastatic nodules) (B16F10; intravenous injection, vs CpG-scrambled siRNA)	percentage of IFN-γ-producing CD8+ T cells (B16F10; lung, vs CpG-scrambled siRNA group)	mRNA levels of Ythdf2 in sorted TAMs (Ythdf2 mRNA)
CC(C)C[C@H](CO)Nc1nc(S[C@@H](C)c2ccccc2)nc2nc(N)sc12 [AZD8797]	differences in macrophage migration between WT and Ythdf2 KO groups disappeared	abolished the difference of tumor growth												
B1			significantly inhibited tumor growth	still inhibited tumor growth	significantly up-regulated	down-regulated	increased	reduced tumor growth	significantly higher	significantly inhibited tumor growth	significantly higher	inhibited tumor metastasis	significantly higher	significantly lower
